Results taken from US20100047163A1 (LAWRENCE BERKELEY NATIONAL LABORATORY, published 2010).
Values joined by “and” are separate entries in the source; they are usually repeats but may differ in a detail not shown here. Equal values may be shown once.

B1: LDL receptor (LDLR) on human glioblastoma multiforme cells (receptor)
chain: not shown
notes: whole, on cells; also called cell surface LDLR

How the values were obtained:
[1] = target: T1, native plasma LDL (low density lipoprotein; LDLR ligand apoB100 on its surface) (human, UniProt P04114 28-4563); test: ^125I-LDL saturation binding to U-251 MG cells (average of 2 experiments)
T1 construct: Lipoprotein particle isolated from plasma; also called native LDL
T1 sequence (P04114 28-4563 limits assumed): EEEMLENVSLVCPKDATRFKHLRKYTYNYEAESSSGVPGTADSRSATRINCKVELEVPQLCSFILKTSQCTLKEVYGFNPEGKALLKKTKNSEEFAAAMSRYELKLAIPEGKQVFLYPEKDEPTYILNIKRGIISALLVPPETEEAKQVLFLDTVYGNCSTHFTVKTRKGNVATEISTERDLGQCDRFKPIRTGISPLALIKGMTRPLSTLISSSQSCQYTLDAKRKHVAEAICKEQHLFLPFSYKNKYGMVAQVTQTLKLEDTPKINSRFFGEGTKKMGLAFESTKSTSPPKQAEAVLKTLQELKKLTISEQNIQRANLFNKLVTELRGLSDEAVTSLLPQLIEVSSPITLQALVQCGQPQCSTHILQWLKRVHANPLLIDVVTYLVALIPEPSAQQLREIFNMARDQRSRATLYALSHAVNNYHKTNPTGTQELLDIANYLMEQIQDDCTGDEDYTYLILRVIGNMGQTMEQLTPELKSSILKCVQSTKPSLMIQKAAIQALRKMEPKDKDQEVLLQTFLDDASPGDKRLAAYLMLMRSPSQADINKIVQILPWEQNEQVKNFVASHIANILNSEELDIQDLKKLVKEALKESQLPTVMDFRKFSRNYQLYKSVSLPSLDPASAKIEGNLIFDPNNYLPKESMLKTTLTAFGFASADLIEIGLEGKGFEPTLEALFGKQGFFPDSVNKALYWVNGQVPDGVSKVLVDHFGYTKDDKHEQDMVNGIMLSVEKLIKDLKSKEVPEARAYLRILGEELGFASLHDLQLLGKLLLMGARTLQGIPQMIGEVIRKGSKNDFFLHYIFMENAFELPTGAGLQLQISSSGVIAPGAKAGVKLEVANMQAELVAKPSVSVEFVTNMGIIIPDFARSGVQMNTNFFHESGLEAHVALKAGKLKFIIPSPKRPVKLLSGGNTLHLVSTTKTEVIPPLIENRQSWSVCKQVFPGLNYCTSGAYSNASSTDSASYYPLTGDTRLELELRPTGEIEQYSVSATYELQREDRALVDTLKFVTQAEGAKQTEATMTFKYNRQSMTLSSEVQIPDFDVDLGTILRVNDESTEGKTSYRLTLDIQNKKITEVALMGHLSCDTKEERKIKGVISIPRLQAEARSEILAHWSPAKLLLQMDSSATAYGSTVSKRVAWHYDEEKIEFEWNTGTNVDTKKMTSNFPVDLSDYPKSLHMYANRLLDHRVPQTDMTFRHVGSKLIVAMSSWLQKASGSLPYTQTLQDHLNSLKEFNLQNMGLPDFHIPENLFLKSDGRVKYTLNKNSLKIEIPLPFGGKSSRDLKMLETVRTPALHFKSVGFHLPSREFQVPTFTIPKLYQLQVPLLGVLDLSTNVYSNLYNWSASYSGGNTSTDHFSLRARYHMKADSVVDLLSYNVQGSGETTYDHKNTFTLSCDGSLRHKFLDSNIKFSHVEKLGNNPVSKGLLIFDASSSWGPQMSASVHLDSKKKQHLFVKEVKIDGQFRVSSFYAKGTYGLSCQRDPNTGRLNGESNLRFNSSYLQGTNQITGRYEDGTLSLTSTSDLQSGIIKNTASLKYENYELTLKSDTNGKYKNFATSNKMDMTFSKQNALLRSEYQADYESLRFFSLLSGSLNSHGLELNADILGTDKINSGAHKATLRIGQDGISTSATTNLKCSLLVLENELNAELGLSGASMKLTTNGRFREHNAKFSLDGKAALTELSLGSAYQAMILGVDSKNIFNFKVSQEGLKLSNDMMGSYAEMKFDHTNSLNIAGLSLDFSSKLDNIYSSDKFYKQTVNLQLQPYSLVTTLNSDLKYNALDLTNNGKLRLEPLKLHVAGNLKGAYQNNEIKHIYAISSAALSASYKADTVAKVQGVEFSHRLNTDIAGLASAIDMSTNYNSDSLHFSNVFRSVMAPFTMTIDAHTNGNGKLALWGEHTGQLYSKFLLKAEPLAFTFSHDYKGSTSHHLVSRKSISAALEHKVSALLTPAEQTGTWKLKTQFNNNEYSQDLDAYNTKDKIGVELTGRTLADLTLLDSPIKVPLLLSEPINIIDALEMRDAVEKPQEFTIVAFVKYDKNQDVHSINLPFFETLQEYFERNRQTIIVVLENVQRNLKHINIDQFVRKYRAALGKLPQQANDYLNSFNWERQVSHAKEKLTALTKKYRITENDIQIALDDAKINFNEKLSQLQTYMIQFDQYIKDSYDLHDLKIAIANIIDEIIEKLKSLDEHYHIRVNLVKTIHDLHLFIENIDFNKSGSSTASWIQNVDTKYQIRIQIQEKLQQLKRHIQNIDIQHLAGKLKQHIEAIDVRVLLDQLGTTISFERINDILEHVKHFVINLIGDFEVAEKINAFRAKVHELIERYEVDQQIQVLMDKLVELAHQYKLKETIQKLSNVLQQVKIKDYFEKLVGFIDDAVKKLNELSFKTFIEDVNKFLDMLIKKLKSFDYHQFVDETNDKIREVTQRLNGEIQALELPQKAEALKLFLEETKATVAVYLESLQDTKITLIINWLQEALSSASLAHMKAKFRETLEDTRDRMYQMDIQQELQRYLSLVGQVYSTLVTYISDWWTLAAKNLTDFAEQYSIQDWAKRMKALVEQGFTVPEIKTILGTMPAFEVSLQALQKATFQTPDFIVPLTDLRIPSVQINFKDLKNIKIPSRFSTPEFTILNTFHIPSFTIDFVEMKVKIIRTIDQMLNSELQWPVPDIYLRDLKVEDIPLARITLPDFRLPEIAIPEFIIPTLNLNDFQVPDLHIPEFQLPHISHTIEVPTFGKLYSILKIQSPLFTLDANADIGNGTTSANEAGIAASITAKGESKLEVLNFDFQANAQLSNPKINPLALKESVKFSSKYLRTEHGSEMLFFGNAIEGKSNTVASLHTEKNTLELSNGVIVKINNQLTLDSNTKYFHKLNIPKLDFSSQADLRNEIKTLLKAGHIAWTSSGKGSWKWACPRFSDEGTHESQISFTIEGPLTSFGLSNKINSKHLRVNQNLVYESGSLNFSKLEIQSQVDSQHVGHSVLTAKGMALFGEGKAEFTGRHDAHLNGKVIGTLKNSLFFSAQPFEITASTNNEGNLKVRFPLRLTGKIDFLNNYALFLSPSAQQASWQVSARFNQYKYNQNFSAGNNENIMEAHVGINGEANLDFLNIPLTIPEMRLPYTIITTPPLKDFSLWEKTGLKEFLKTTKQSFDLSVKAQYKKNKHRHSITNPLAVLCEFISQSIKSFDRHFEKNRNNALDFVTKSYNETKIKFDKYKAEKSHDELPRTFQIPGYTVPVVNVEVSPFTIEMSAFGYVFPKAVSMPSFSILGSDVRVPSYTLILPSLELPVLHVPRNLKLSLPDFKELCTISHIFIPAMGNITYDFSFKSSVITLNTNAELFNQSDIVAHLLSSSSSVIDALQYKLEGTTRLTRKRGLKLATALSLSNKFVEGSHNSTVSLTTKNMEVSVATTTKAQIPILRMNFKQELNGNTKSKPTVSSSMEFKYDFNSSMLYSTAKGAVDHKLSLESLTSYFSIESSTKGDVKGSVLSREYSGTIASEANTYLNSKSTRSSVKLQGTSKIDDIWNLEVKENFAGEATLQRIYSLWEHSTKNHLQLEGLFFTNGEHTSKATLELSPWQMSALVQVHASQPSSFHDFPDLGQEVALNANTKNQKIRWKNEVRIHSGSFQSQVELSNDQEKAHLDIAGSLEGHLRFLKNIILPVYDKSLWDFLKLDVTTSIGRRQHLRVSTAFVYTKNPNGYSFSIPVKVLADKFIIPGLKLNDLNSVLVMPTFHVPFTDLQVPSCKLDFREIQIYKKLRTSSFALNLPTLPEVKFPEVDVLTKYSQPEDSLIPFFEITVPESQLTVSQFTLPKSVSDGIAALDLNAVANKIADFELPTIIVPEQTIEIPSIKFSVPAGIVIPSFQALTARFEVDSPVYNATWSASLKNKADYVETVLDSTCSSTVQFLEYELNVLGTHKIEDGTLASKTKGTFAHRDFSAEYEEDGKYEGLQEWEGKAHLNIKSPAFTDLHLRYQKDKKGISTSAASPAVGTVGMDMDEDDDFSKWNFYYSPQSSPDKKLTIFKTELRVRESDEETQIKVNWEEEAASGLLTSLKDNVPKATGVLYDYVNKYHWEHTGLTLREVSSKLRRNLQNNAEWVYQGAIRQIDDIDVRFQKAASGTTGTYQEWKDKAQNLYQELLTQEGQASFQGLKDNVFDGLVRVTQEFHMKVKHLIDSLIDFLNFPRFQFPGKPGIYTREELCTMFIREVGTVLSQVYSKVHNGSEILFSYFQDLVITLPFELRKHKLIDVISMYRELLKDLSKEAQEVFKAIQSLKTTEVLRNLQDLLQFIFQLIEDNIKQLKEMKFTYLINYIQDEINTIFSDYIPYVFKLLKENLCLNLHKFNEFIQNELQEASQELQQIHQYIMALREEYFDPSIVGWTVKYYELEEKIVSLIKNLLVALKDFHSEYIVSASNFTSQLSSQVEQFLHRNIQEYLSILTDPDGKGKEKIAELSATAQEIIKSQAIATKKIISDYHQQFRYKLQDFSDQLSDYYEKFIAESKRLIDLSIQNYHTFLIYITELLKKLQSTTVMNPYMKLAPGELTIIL

[2] = target: T1, native plasma LDL (low density …); test: ^125I-LDL saturation binding to A-172 cells
[3] = target: T1, native plasma LDL (low density …); test: ^125I-LDL saturation binding to SF-767 cells
[4] = target: T1, native plasma LDL (low density …); test: ^125I-LDL saturation binding to U-343 MG cells
[5] = target: T1, native plasma LDL (low density …); test: ^125I-LDL saturation binding to SF-539 cells
[6] = target: T1, native plasma LDL (low density …); test: ^125I-LDL saturation binding to SF-763 cells
[7] = target: B1; test: cell-based or functional assay

Kd [1] | Kd [2] | Kd [3] | Kd [4] | Kd [5] | Kd [6] | Binder | IC50 of SF-763 cell killing, 6 hrs incubation with sLDL-PO, 72 hr total [7] | IC50 of SF-767 cell killing, 1 hr incubation with sLDL-PO, 72 hr total [7] | IC50 of SF-767 cell killing, 3 hr incubation with sLDL-PO, 72 hr total [7] | IC50 of SF-767 cell killing, 6 hr incubation with sLDL-PO, 72 hr total [7] | IC50 of SF-767 cell killing, 6 hrs incubation with sLDL-PO, 72 hr total [7] | IC50 of SF-767 cell killing, 12 hr incubation with sLDL-PO, 72 hr total [7] | IC50 of U-251 cell killing, 6 hrs incubation with sLDL-PO, 72 hr total [7]
38 µg/mL and 76 nM | 62 µg/mL and 124 nM | 3.5 µg/mL and 6.98 nM | 40 µg/mL and 80 nM | 50 µg/mL and 100 nM | 60 µg/mL and 120 nM | B1 | – | – | – | – | – | – | –
– | – | – | – | – | – | Ac-DWLKAFYDKVAEKLKEAFRLTRKRGLKLA-NH2 (also: sLDL particle with paclitaxel oleate in lipid core, not covalently bound) [synthetic LDL containing paclitaxel oleate (sLDL-PO)] | 2 µM | 20 µM | 15 µM | 10 µM | 7 µM | 10 µM | 7 µM
